Here are results for one molecule from publication doi:10.1101/2021.01.25.428185 (bioRxiv, 2021).

Experiment [1] has as its target T1, GST-Rab11A(CA), mouse Rab11A(Q70L), GTPγS-loaded (mouse, UniProt P62492 1-216, Q70L).
T1 sequence (looked up): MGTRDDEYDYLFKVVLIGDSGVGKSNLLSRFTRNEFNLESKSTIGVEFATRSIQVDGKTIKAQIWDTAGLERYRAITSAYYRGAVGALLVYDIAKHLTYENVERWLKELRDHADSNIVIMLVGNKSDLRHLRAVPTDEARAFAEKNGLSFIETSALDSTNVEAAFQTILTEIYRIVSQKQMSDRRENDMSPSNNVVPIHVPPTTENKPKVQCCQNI
The experiment is described as follows: pull-down.

In experiment [2] the target is T2, GST-Rab11A(CN), mouse Rab11A(N124I), GDP-loaded (mouse, UniProt P62492 1-216, N124I).
T2 sequence (looked up): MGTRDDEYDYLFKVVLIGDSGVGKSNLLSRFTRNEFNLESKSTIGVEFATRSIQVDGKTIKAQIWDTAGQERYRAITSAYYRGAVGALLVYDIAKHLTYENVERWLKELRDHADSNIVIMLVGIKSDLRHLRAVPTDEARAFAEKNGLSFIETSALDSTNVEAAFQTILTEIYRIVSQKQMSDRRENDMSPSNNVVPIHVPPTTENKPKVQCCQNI
The experiment is described as follows: pull-down.

B1: T7-tagged Rab11-FIP2-C (domain or fragment, mouse, UniProt G3XA57 389-512, looked up)
chain: PSAFSENRQDYFEYESTNPFTAKFRASTIMPSSSFHVNPTSSEDLRKIPDNNPFDATAGYRSLTYEEVLQELVKHKELLRRKDTHIRELEDYIDNLLVRVMEETPSILRVPYEPSRKAGKFTNS
On to B1, for which the binding result in experiment [1] and in experiment [2] was “binds” throughout.
